Values quoted from earlier work in publication PMC10218885.

Assays:
Assay in all cases: NMR
Tyr118 = Tyr118 (UniProt position 118, LSGDSYWVFVK)
Tyr42 = Tyr42 (UniProt position 42, GNILQYNAAEG)
Tyr76 = Tyr76 (UniProt position 76, DSPEFYGKFKE)
Tyr94 = Tyr94 (UniProt position 94, NTMFEYTFDYQ)
Tyr98 = Tyr98 (UniProt position 98, EYTFDYQMTPT)

In the case of “Photoactive yellow protein (PYP) (Stated in the article as Halobacterium halobium; the PYP of the cited study is from Halorhodospira halophila (formerly Ectothiorhodospira halophila))”, the pKa (Tyr118) is given as 11.4–12.0, the pKa (Tyr42) is given as > 13 and the pKa (Tyr76) is given as 10.2–10.3. The pKa (Tyr94) was > 13 and the pKa (Tyr98) was 10.2–10.3.
